Series [1] concerns the molecule itself. In words: SEC-MALS; A13DBD bound to 11-mer DNA duplex; Superdex 75 HR 10/30 at 4°C, calibrated with mass standards, in line with MALS and refractive index; mass as a function of protein concentration; dimer to monomers. (Size exclusion chromatography separates by hydrodynamic size, large species first.)
Series [2] concerns the molecule itself. In words: 15N NMR relaxation (rotational correlation time); A13DBD bound to 11-mer DNA duplex, about 0.5 mM, 310 K, 20 mM NaPO4, 5 mM MgCl2, pH 6.0; R2/R1 gives the rotational correlation time and a spherical mass.
Series [3] concerns the molecule itself. In words: not stated; K343E mutant of A13DBD; the method is not named for this mutant (the neighbouring mutants were tested by SEC/MALS of the DNA complex).

Where only a bound is given, the exact number is not on record here.

As usually defined, the Kd is a measure of binding affinity in units of concentration. A higher Kd goes with a looser complex. For orientation: stoichiometry N means the number of molecules, sites or subunits per partner or assembly.

B1: HOXA13 DNA binding domain (A13DBD), wild type (domain or fragment)
chain: not shown
notes: numbers count on: GenBank AAB03322.1; The introduction gives residues 314-386 for A13DBD, the methods G320-S386; Cloned in pET-15b; also called HOXA13 homeodomain; WT; source: E. coli BL21(DE3), purified (His-tag purification, thrombin cleavage, Superdex-75)
Consider B1, for which, in series [1], the Kd is below 500 nM. In series [2], the “stoichiometry N” value amounted to 2.

B2: HOXA13 DNA binding domain (A13DBD) K343E (domain or fragment)
chain: not shown
notes: numbers count on: GenBank AAB03322.1; source: E. coli BL21(DE3), purified (His-tag purification, thrombin cleavage, Superdex-75)
For B2, in series [3], the “fold lowering of the dimerization affinity against wild type” value is around 5 fold.

B3: HOXA13 DNA binding domain (A13DBD) F344A (domain or fragment)
chain: not shown
notes: numbers count on: GenBank AAB03322.1; Made by QuikChange mutagenesis of pHisA13DBD; The luciferase assay used the same mutation in full-length HOXA13 (pCAGGS-HOXA13) in NG108-15 cells; source: E. coli BL21(DE3), purified (His-tag purification, thrombin cleavage, Superdex-75)
On to B3, for which, in series [1], the “fold weakening of the dimerization affinity against wild type” value is at least 10 fold.
